Bridges are numbered along the chain shown (N, C = ends). Where no end group is shown, it is not given here. [ ]: non-standard residue; d: D form. The star is where a group is joined. FITC = O=C1OC2(c3ccc(O)cc3Oc3cc(O)ccc32)c2ccc(NC(=S)*)cc21; S5 = C=CCCC[C@](C)(N)C(=O)O; Nle = CCCC[C@H](N)C(=O)O
Tests used:
[1] = target: recombinant human MCL-1ΔNΔC (amino acids 172-320) (human) (UniProt Q07820); experiment: FPA, FITC-SAHB against MCL-1ΔNΔC
[2] = target: recombinant human MCL-1ΔNΔC (amino acids 172-320) (human) (UniProt Q07820); experiment: fluorescence polarization (FPA), FITC-SAHB, dilution series of MCL-1ΔNΔC [top panel]
recombinant BCL-XLΔC [3] = target: recombinant BCL-XLΔC (UniProt Q07817); experiment: fluorescence polarization (FPA), FITC-SAHB with recombinant anti-apoptotic protein [lower table]
Chain of recombinant BCL-XLΔC (Q07817 1-212, stated change not applied): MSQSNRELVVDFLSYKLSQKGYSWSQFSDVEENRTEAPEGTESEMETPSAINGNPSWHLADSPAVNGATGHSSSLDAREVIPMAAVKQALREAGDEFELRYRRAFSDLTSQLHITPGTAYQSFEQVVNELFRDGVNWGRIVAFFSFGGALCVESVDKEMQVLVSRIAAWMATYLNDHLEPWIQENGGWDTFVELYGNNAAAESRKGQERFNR

recombinant BCL-wΔC [4] = target: recombinant BCL-wΔC (UniProt Q92843); experiment: as above
Chain of recombinant BCL-wΔC (Q92843 1-164, stated change not applied): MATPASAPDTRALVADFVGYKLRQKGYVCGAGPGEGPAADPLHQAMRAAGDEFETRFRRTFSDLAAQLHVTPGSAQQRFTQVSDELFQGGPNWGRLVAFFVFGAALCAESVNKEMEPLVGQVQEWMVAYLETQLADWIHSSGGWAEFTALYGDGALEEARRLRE

recombinant BFL-1/A1ΔC [5] = target: recombinant BFL-1/A1ΔC (UniProt Q16548); experiment: as above
Chain of recombinant BFL-1/A1ΔC (Q16548 1-153, stated change not applied): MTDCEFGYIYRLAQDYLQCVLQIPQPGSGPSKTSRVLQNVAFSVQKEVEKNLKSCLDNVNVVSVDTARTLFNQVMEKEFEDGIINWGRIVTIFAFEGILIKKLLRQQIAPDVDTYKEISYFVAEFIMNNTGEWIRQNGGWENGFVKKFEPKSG

[6] = target: recombinant human MCL-1ΔNΔC (amino acids 172-320) (human) (UniProt Q07820); experiment: as above
[7] = target: recombinant human MCL-1ΔNΔC (amino acids 172-320) (human) (UniProt Q07820); experiment: fluorescence polarization (FPA), FITC-NOXA SAHBB, dilution series of the protein [left graph]
recombinant BCL-XLΔC [8] = target: recombinant BCL-XLΔC (UniProt Q07817); experiment: fluorescence polarization (FPA), FITC-SAHB with recombinant anti-apoptotic protein [upper table]
recombinant BCL-wΔC [9] = target: recombinant BCL-wΔC (UniProt Q92843); experiment: as above
recombinant BFL-1/A1ΔC [10] = target: recombinant BFL-1/A1ΔC (UniProt Q16548); experiment: as above
[11] = target: recombinant human MCL-1ΔNΔC (amino acids 172-320) (human) (UniProt Q07820); experiment: as above
recombinant BFL-1/A1ΔC [12] = target: recombinant BFL-1/A1ΔC (UniProt Q16548); experiment: fluorescence polarization (FPA), FITC-SAHB with recombinant protein; axis Concentration [log(pM)] [left panel]
[13] = target: T1, recombinant human MCL-1ΔNΔC (amino acids 172-320) (human, UniProt Q07820 172-320); experiment: FPA, FITC-SAHB against MCL-1ΔNΔC
T1 construct: also called rMCL-1; MCL-1NC
T1 sequence (Q07820 172-320 limits assumed, stated change not applied): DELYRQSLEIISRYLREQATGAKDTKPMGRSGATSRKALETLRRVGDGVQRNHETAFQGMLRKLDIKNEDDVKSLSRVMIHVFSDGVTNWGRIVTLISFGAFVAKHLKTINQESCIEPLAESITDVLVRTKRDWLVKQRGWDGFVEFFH
Description: (§1) For direct binding experiments, dissociation constants (KD) were calculated by nonlinear regression analysis of dose-response curves using Prism software (Graphpad). For competition experiments, Ki values were determined by nonlinear regression analysis of dose-response curves using a one-site competition model.
The native alpha-helical structure of BH3 domains was reinforced by incorporating non-natural amino acids containing olefin tethers at the (i, i+4) positions of the non-interacting face, followed by ruthenium catalyzed olefin metathesis to yield a panel of stapled BH3 domains (FIG. 7).

[14] = target: T1, recombinant human MCL-1ΔNΔC (amino …); experiment: competition FPA: dilution series of acetylated MCL-1 SAHB against FITC-BAK SAHB on MCL-1ΔNΔC
Description: (§2) Briefly, FITC-SAHB (50 nM) was added to serial dilutions of FPLC-purified recombinant protein in binding buffer (50 mM Tris, 100 mM NaCl, pH 8.0). […] Multiwell plates were incubated in the dark at room temperature until equilibrium was reached and fluorescence polarization (mP units) was measured by microplate reader (SpectraMax, Molecular Devices). For direct binding experiments, dissociation constants (KD) were calculated by nonlinear regression analysis of dose-response curves using Prism software (Graphpad). For competition experiments, Ki values were determined by nonlinear regression analysis of dose-response curves using a one-site competition model.
(§3) FP (mP units) was measured at equilibrium by microplate reader (e.g., Spectramax) and Kᵢ values calculated by nonlinear regression analysis of dose-response curves using Prism software (Graphpad).

[15] = target: T1, recombinant human MCL-1ΔNΔC (amino …); experiment: FPA
Description: as §1
The alanine scan was supplemented with glutamate mutagenesis of alanine and glycine residues.

[16] = target: T1, recombinant human MCL-1ΔNΔC (amino …); experiment: fluorescence polarization (FPA), FITC-SAHB, dilution series of MCL-1ΔNΔC [middle panel]
Description: as §1
(§4) To measure the binding activity of SAHBs for MCL-1, fluorescence polarization binding assays were performed (FIG. 8). To generate a stable MCL-1 protein suitable for such binding studies (i.e., the published full-length and carboxy-terminus deleted forms of recombinant MCL-1 degrade rapidly, rendering it difficult to maintain a homogenous solution of pure MCL-1 protein), a recombinant form of MCL-1 (rMCL-1) was produced that lacked its amino- and carboxy-terminus, “MCL-1ΔNΔC”, but retained the critical BCL-2 homology domains and adjoining protein sequences that give rise to the BH3-binding cleft (SEQ ID NO: 72). The pGEX-4T vector was used to produce the GST-fusion protein of MCL-1ΔNΔC and purification was achieved by glutathione sepharose chromatography, affinity tag cleavage with thrombin at room temperature overnight, followed by size exclusion chromatography. Serial dilutions of MCL-1ΔNΔC in 50 mM Tris pH 8, 150 mM NaCl were incubated with a fixed concentration of FITC-derivatized SAHB (10-50 nM) until equilibrium was reached. Fluorescence polarization was measured on a BMG POLARstar Optima or Spectramax and dissociation constants determined by nonlinear regression analysis using Prism software 4.0 (Graphpad) (FIG. 8).

[17] = target: T1, recombinant human MCL-1ΔNΔC (amino …); experiment: fluorescence polarization (FPA), FITC-SAHB with recombinant anti-apoptotic protein [upper table]
Description: as §1
(§5) To measure the binding activity of SAHBs for MCL-1, fluorescence polarization binding assays were performed (FIG. 8). To generate a stable MCL-1 protein suitable for such binding studies (i.e., the published full-length and carboxy-terminus deleted forms of recombinant MCL-1 degrade rapidly, rendering it difficult to maintain a homogenous solution of pure MCL-1 protein), a recombinant form of MCL-1 (rMCL-1) was produced that lacked its amino- and carboxy-terminus, “MCL-1ΔNΔC”, but retained the critical BCL-2 homology domains and adjoining protein sequences that give rise to the BH3-binding cleft (SEQ ID NO: 72). The pGEX-4T vector was used to produce the GST-fusion protein of MCL-1ΔNΔC and purification was achieved by glutathione sepharose chromatography, affinity tag cleavage with thrombin at room temperature overnight, followed by size exclusion chromatography. […] Fluorescence polarization was measured on a BMG POLARstar Optima or Spectramax and dissociation constants determined by nonlinear regression analysis using Prism software 4.0 (Graphpad) (FIG. 8).

[18] = target: T1, recombinant human MCL-1ΔNΔC (amino …); experiment: fluorescence polarization (FPA), FITC-SAHB with recombinant protein; axis Concentration [log(pM)] [right panel]
[19] = target: T1, recombinant human MCL-1ΔNΔC (amino …); experiment: fluorescence polarization (FPA), FITC-SAHB, dilution series of MCL-1ΔNΔC [top panel]
Description: as §1, §5

[20] = target: T1, recombinant human MCL-1ΔNΔC (amino …); experiment: fluorescence polarization (FPA), FITC-SAHB with recombinant anti-apoptotic protein [lower table]
Description: as §1, §4

[21] = target: T1, recombinant human MCL-1ΔNΔC (amino …); experiment: competition FPA, FITC-BAK SAHB and MCL-1ΔNΔC with MCL-1 SAHBs as competitors
Description: as §2, §3

Chain of recombinant human MCL-1ΔNΔC (amino acids 172-320) (human) (Q07820 172-320 limits assumed, stated change not applied): as above

Molecule	Kd (recombinant BCL-XLΔC [3]) [nM]	Kd (recombinant BCL-wΔC [4]) [nM]	Kd (recombinant BFL-1/A1ΔC [5]) [nM]	Kd [13] [nM]	Kd [20] [nM]	also measured
NOXA SAHBB (from UniProt Q13794 19-43) (peptide)	–	–	–	–	–	Kd [7]: 110 nM; Kd (recombinant BCL-XLΔC [8]): > 1000 nM; Kd (recombinant BCL-wΔC [9]): > 1000 nM; Kd (recombinant BFL-1/A1ΔC [10]): > 1000 nM; Kd [11]: 109 nM
BIM SAHB (BIM SAHBA) (peptide)	–	2	18	–	–	EC50 (read off the curve) (recombinant BFL-1/A1ΔC [12]): 50 nM
KALETLR[S5]VGD[S5]VQRNHETAF (staple 8-12; also: N-terminal FITC or acetyl depending on assay, domain: BH3; also called FITC-MCL-1 SAHBA) [MCL-1 SAHBA (stapled MCL-1 BH3 helix, parental)]	–	–	–	< 50	–	Ki [14]: 3100 nM
{FITC}-KALETLR[S5]VGD[S5]FQRNHETAF (peptide, UniProt Q07820 208-228, looked up, staple 8-12, domain: BH3; also called V220F point mutation in MCL-1 SAHB) [MCL-1 SAHBA V220F]	–	–	–	–	–	Kd [15]: 191 nM
{FITC}-IWI[S5]QEL[S5]RFGDKFNAYYAR (staple 4-8) [BIM SAHBD with Ile65 to Phe and Glu68 to Lys (MCL-1-specificity tailored BIM SAHB)]	–	–	–	–	–	EC50 (read off the curve) [18]: ~10 nM
{FITC}-DIIRNIARHLA[S5]VGD[S5][Nle]DRSIRR (staple 12-16, domain: BH3) [BID SAHB]	28	54	95	< 50	50	Kd [19]: 50 nM
{FITC}-ASTKKLSESLK[S5]IGD[S5]LDSN (staple 12-16, domain: BH3) [BAX SAHB]	15	24	28	< 50	101	Kd [16]: 101 nM
{FITC}-QVGRQLA[S5]IGD[S5]INRRYD (staple 8-12, also called FITC-BAK SAHB; BAK BH3 helix) [BAK SAHB]	15	17	92	< 50	7	IC50 [21]: 270 nM; Kd [16]: 7 nM

Further lines, with some results ahead:

Kd (recombinant BCL-XLΔC [3]) [nM]	Kd (recombinant BCL-wΔC [4]) [nM]	Kd (recombinant BFL-1/A1ΔC [5]) [nM]	Kd [13] [nM]	Kd [20] [nM]	Molecule	also measured
> 1000	> 1000	416	–	–	NOXA SAHBA (stapled NOXA BH3 helix) (from UniProt Q13794) (peptide)	Kd [1]: < 50 nM; Kd [2]: 22 nM; Kd [6]: 22 nM
–	–	–	< 50	–	{FITC}-RLAEVSAVLL[S5]LGD[S5]LE[Nle]IR (staple 11-15) [BOK SAHB]	Kd (recombinant BCL-XLΔC [8]): 316 nM; Kd (recombinant BCL-wΔC [9]): 416 nM; Kd (recombinant BFL-1/A1ΔC [10]): > 1000 nM; Kd [16]: 115 nM; Kd [17]: 115 nM
9	18	34	< 50	14	{FITC}-QWAREIGAQLR[S5][Nle]AD[S5]LNAQY (staple 12-16, domain: BH3) [PUMA SAHB]	Kd [19]: 14 nM
